The text below walks through data of patent publication US20090297524A1 (DOMANTIS, published 2009).

T1: Recombinant human CD40L (human, UniProt P29965 108-261, limits assumed)
T1 construct: also called CD40 ligand
T1 sequence (looked up): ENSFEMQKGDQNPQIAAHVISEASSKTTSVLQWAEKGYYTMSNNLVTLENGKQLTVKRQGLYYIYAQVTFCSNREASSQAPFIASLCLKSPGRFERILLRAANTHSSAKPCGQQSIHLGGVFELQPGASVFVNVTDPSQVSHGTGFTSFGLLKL

B1: DOM.136 (other)
VH: EVQLLESGGGLVQPGGSLRLSCAASGFTFDGYRMGWVRQAPGKGLEWVSSIAPDGNYTYYADSVKGRFTISRDNSKNTLYLQMNSLRAEDTAVYYCAKFWGMQFDYWGQGTLVTVSS
notes: VH dAb
B2: DOM.113 (other)
VH: EVQLLESGGGLVQPGGSLRLSCAASGFTFTEYPMSWVRQAPGKGLEWVSVISPLGFTTYYADSVKGRFTISRDNSKNTLYLQMNSLRAEDTAVYYCAKWTGGSGILNSSFDYWGQGTLVTVSS
notes: VH dAb
B3: DOM.134 (other)
VH: EVQLLESGGGLVQPGGSLRLSCAASGFTFADYEMTWVRQAPGKGLEWVSSITSDGVSTYYADSVKGRFTISRDNSKNTLYLQMNSLRAEDTAVYYCAKPSVQFDYWGQGTLVTVSS
notes: VH dAb
B4: DOM.132 (other)
VH: B3 VH with E33D, T35A, S50G, T52V, S53D, V56L, S57M, S100D, Q102A, S116N
notes: VH dAb
B5: DOM.184 (other)
VH: B3 VH with A30S, T35M, D54H, V56G, S100D, V101K, Q102D
notes: VH dAb
B6: DOM.208 (other)
VH: B3 VH with A30T, D31E, T35S, T52D, S53N, D54V, V56S, S100G, V101K, Q102L
notes: VH dAb
B7: DOM.190 (other)
VH: EVQLLESGGGLVQPGGSLRLSCAASGFTFSMYDMHWVRQAPGKGLEWVSTILSDGTDTYYADSVKGRFTISRDNSKNTLYLQMNSLRAEDTAVYYCAKYGAMFDYWGQGTLVTVSS
notes: VH dAb
B8: DOM.196 (other)
VH: B3 VH with A30S, D31G, T35A, S53D, D54M, V56D, S100G, V101T, Q102A, Q108P
notes: VH dAb
B9: DOM.186 (other)
VH: EVQLLESGGGLVQPGGSLRLSCAASGLTFGRYEMAWVRQAPGKGLEWVSSIDSDGWVTYYADSVKGRFTISRDNSKNTLYLQMNSLRAEDTAVYYCAQPDSLFDYWGQGTLVTVSS
notes: VH dAb
B10: DOM.206 (other)
VH: B3 VH with D31S, S50G, T52S, V56L, S100G, Q102L
notes: VH dAb
B11: DOM.178 (other)
VH: EVQLLESGGGLVQPGGSLRLSCAASGFTFEDFDMAWVRQAPGKGLEWVSSINDQGSLTYYADSVKGRFTISRDNSKNTLYLQMNSLRAEDTAVYYCAKPDQFFDYWGQGTLVTVSS
notes: VH dAb
B12: DOM.180 (other)
VH: B3 VH with A30T, T35G, S50T, D54L, V56E, S100G, V101R, Q102I
notes: VH dAb
B13: DOM.205 (other)
VH: B3 VH with D31S, E33Q, T35A, S50G, D54G, V56L, S100G, V101R, Q102G
notes: VH dAb
B14: DOM.126 (other)
VH: EVQLLESGGGLVQPGGSLRLSCAASGFTFANYSMSWVRQAPGKGLEWVSSIDRLGTHTYYADSVKGRFTISRDNSKNTLYLQMNSLRAEDTAVYYCAKVLADLIAGHAEFDYWGQGTLVTVSS
notes: VH dAb
B15: DOM.114 (other)
VH: EVQLLESGGGLVQPGGSLRLSCAASGFRVSNYDLTWVRQAPGKGLEWVSTISATNGSTYYADSVKGRFTISRDNSKNTLYLQMNSLRAEDTAVYYCAAVTWWLLRHNDNLGFWGQGTLVTVSS
B16: DOM.137 (other)
VH: EVQLLESGGGLVQPGGSLRLSCAASGFTFASYPMGWVRQAPGKGLEWVSSIGPIGFTTYYADSVKGRFTISRDNSKNTLYLQMNSLRAEDTAVYYCAEMKSPYKPQFDYWGQGTLVTVSS
notes: VH dAb
B17: DOM.139 (other)
VH: EVQLLESGGGLVQPGGSLRLSCAASGFTFSNYEMGWVRQAPGKGLEWVSVISEVGSLTYYADSVKGRFTISRDNSKNTLYLQMNSLRAEDTAVYYCAKPHDSSIGFDYWGQGTLVTVSS
notes: VH dAb
B18: DOM.124 (other)
VH: EVQLLESGGGLVQPGGSLRLSCAASGFTFKRYDMDWVRQAPGKGLEWVSTIGSSGYPTYYADSVKGRFTISRDNSKNTLYLQMNSLRAEDTAVYYCAERMPGYFPGFARQFDYWGQGTLVTVSS
notes: VH dAb
B19: DOM8.111 (other)
VH: EVQLLESGGGLVQPGGSLRLSCAASGFTFERYPMTWVRQAPGKGLEWVSTIHGSGSATYYADSVKGRFTISRDNSKNTLYLQMNSLRAEDTAVYYCAKGPYTSRHNSLGHFDYWGQGTLVTVSS
notes: VH dAb
B20: DOM.145 (other)
VL: DIQMTQSPSSLSASVGDRVTITCRASQTIYTSLSWYQQKPGKAPKLLIHYGSVLQSGVPSRFSGSGSGTDFTLTISSLQPEDSATYYCQQVHQAPTTFGQGTKVEIKR
notes: Vk dAb
B21: DOM.133 (other)
VH: EVQLLESGGGLVQPGGSLRLSCAASGFTFIGYAMAWVRQAPGKGLEWVSSIGPLGATTYYADSVKGRFTISRDNSKNTLYLQMNSLRAEDTAVYYCAKLPAGTSSHSVDFDYWGQGTLVTVSS
notes: VH dAb
B22: DOM.115 (other)
VH: EVQLLESGGGLVQPGGSLRLSCAASGFSISYKNMAWVRQAPGKGLEWVSAIKAANGSTYYADSVKGRFTISRDNSKNTLYLQMNSLRAEDTAVYYCATGSQKKRTYTFDFWGQGTLVTVSS
B23: DOM.135 (other)
VH: EVQLLESGGGLVQPGGSLRLSCAASGFTFRRYVMGWVRQAPGKGLEWVSWIEADGRTTYYADSVKGRFTISRDNSKNTLYLQMNSLRAEDTAVYYCAKGLTDQHVIEFDYWGQGTLVTVSS
notes: VH dAb
B24: DOM.100 (other)
VL: DIQMTQSPSSLSASVGDRVTITCRASQNIKHSLRWYQQKPGKAPRLLIYHRSQLQSGVPSRFSGSGSGTDFTLTISSLQPEDFATYYCQQVRHRPYTFGQGTKVEIKR
notes: Vk dAb
B25: DOM.102 (other)
VL: B24 VL with N28H, K30G, S32H, R45K, Q53H, F83S, V91W, R92D, H93R, R94P
notes: Vk dAb
B26: DOM.141 (other)
VL: DIQMTQSPSSLSASVGDRVTITCRASQWIGDTLTWYQQKLGKAPKLLIYGGSELQSGVPPRFSGSGSGTDFTLTISSLQPEDFATYYCQQCISSPCTFGQGTKVEIKR
notes: Vk dAb
B27: DOM.125 (other)
VH: EVQLLESGGGLVQPGGSLRLSCAASGFTFWRYAMGWVRQAPGKGLEWVSTINDEGRETYYADSVKGRFTISRDNSKNTLYLQMNSLRAEDTAVYYCAKKRVSSSVNAPYEFDYWGQGTLVTVSS
notes: VH dAb
B28: DOM.138 (other)
VH: EVQLLESGGGLVQPGGSLRLSCAASGFTFLAYWMVWVRQAPGKGLEWVSSISPSGTHTYYADSVKGRFTISRDNSKNTLYLQMNSLRVEDTAVYYCAKYTEPGLGSFDYWGQGTLVTVSS
notes: VH dAb
B29: DOM.112 (other)
VH: EVQLLESGGGLVQPGGSLRLSCAASGFTFMDYPMGWVRQAPGKGLEWVSSIGPVGMSTYYADSVKGRFTISRDNSKNTLYLQMNSLRAEDTAVYYCAKYGGTSGRHNTKFDYWGQGTLVTVSS
notes: VH dAb
B30: DOM.123 (other)
VH: EVQLLESGGGLVQPGGSLRLSCAASGFTFIEYPMRWVRQAPGKGLEWVSLISPSGVFTYYADSVKGRFTISRDNSKNTLYLQMNSLRAEDTAVYYCAKGDESSTFDYWGQGTLVTVSS
notes: VH dAb
B31: DOM.120 (other)
VH: EVQLLESGGGLVQPGGSLRLSCAASGFTFRSYTMGWVRQAPGKGLEWVSSINPMGYQTYYADSVKGRFTISRDNSKNTLYLQMNSLRAEDTAVYYCAKHGVGKGTKPHNFDYWGQGTLVTVSS
notes: VH dAb
B32: DOM.121 (other)
VH: EVQLLESGGGLVQPGGSLRLSCAASGFTFELYRMSWVRQAPGKGLEWVSEISGSGFPTYYADSVKGRFTISRDNSKNTLYLQMNSLRAEDTAVYYCAKSLHDKTQHHQEFDYWGQGTLVTVSS
notes: VH dAb
B33: DOM.127 (other)
VH: EVQLLESGGGLVQPGGSLRLSCAASGFTFPSYDMAWVRQAPGKGLEWVSGISRSGSMTYYADSVKGRFTISRDNSKNTLYLQMNSLRAEDTAVYYCAKGVDAHVYYMEPFFDYWGQGTLVTVSS
notes: VH dAb
B34: DOM.99 (other)
VH: EVQLLESGGGLVQPGGSLRLSCAASGFTFEDYAMSWVRQAPGKGLEWVSTITPGGFWTYYADSVKGRFTISRDNSKNTLYLQMNSLRAEDTAVYYCAKTSSGELQLVEDFDYWGQGTLVTVSS
notes: VH dAb

Where a chain is given by its changes, count along the chain named.

This experiment concerns the target T1, Recombinant human CD40L. In words: CD40L/CD40-Fc receptor binding assay.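 Also: plate assay with coated human CD40-Fc, bound ligand detected via HRP anti-biotin antibody and TMB, OD at 450 nm, lower signal indicates stronger inhibition by dAb.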
Experimental: A 96 well Nunc Maxisorp assay plate was coated overnight at 4° C. with 100 μl per well of recombinant human CD40/Fc (R&D Systems) at 0.5 μg/ml in carbonate buffer. The plate was washed 3 times with 300 μl of 0.05% Tween/PBS and 3 times with 300 μl of PBS using a Tecan plate washer. The wells were blocked using 200 μl of PBS containing 2% (w/v) BSA and incubated for a minimum of 1 h at room temperature. The wells were washed as above, then 50 μl of purified dAb protein (or unpurified supernatant containing dAb from a micro-culture expression) was added to each well.
The plate was washed as described above, then 100 μl HRP conjugated anti-biotin antibody (1:5000 dilution in diluent) added to each well and the plate incubated for 1 hr at room temperature. The plate was washed again as described above using a Tecan plate washer and the assay developed using 100 μl of SureBlue 1-Component TMB MicroWell Peroxidase solution (the plate was left at room temperature for up to 20 min). The reaction was stopped by the addition of 100 μl M hydrochloric acid. The OD₄₅₀ₙₘ of the plate was assayed within 30 minutes of acid addition. The OD₄₅₀ₙₘ is proportional to the amount of bound streptavidin-HRP conjugate, therefore the greater the degree of dAb inhibition the lower the OD₄₅₀ₙₘ of the resulting signal.
For the molecule B1, the binding result is “binds”.
With B2 the entry was “binds”.
Take B3: the binding result was “binds”.
Regarding B4, the binding result is on record as “binds”.
With B5, the binding result is “binds”.
Turning to B6, the binding result is recorded as “binds”.
Take B7: the binding result is “binds”.
As for B8, the binding result is listed as “binds”.
As for B9, the binding result is reported as “binds”.
Turning to B10, the binding result was “binds”.
Regarding B11, the binding result was “binds”.
For the molecule B12, the binding result is “binds”.
As for B13, the entry is “binds”; as for B14, “binds”; as for B15, “binds”.
Regarding B16, the binding result is recorded as “binds”.
With B17, the binding result is listed as “binds”.
As for B18, the entry is “binds”; as for B19, “binds”.
For B20, the binding result was “binds”.
For B21, the binding result is reported as “binds”.
On to B22, for which the binding result is “binds”.
Turning to B23, the binding result is listed as “binds”.
B24: the binding result is listed as “binds”.
With B25, the binding result is listed as “binds”.
In the case of B26, the binding result is given as “binds”.
As to B27, the binding result is on record as “binds”.
As for B28, the binding result is “binds”.
For B29, the binding result is reported as “binds”.
Turning to B30, the binding result is “binds”.
Consider B31, for which the binding result is on record as “binds”.
With B32 the entry was “binds”; with B33, “binds”.
As for B34, the entry is “binds”.
